ChEMBL document CHEMBL1132216, “Studies on the monoamine oxidase-B-catalyzed biotransformation of 4-azaaryl-1-methyl-1,2,3,6-tetrahydropyridine derivatives” (J Med Chem, 1999)

Key:
Experiment in all cases: not read
[1] = substrate: CN1CC=C(n2cnc3ccccc32)CC1
Description: (§1) Km against bovine liver Monoamine oxidase B

[2] = substrate: CN1CC=C(n2ccc3ccccc32)CC1
Description: as §1

[3] = substrate: CN1CC=C(n2cccc2)CC1
Description: as §1

[4] = substrate: CN1CC=C(n2ncc3ccccc32)CC1
Description: as §1

[5] = substrate: CN1CC=C(c2ccncc2)CC1
Description: as §1

[6] = substrate: CN1CC=C(c2ccc[nH]2)CC1
Description: as §1

[7] = substrate: CN1CC=C(n2nnc3ccccc32)CC1
Description: as §1

[8] = substrate: CN1CC=C(c2cccn2C)CC1
Description: as §1

B1: Amine oxidase [flavin-containing] B (Bos taurus) (protein)
chain: MSSKCDVVVVGGGISGMAAAKLLHDSGLNVIVLEARDRVGGRTYTLRNQKVKYVDLGGSYVGPTQNHILRLSKELGLETYKVNEVERLIHHTKGKSYPFRGSFPSVWNPITYLDHNNLWRTMDDMGREIPSDAPWKAPLAEQWDLMTMKELLDKICWTESSKQLAILFVNLCVTAEIHEVSALWFLWYVKQCGGTTRIFSTSNGGQERKFVGGSGQVSERIMDLLGDRVKLERPVIHIDQTGENVLVETLNHELYEAKYVISAVPPVLGMKIHFNPPLPMMRNQLITRVPLGSVIKSIVYYKEPFWRNMDYCGSMIIEGEEAPVAYALDDTKPDGSYPAIIGFILAHKARKLARLTKEERLKKLCDLYAKVLGSQEALHPVHYEEKNWCEEQYSGGCYTSYFPPGIMTQYGRVLRQPVGRIYFAGTETATHWSGYMEGAVEAGERAAREILHAMGKIPEDEIWLPEPESVDVPAKPITTTFLQRHLPSVPGLLKLIGLTTIFSATALGFLAHKRGLLVRI
Km [1]: 900 µM | kcat [1]: 3.33 s⁻¹ | Km [2]: 110 µM | kcat [2]: 6.9 s⁻¹ | Km [3]: 650 µM | kcat [3]: 4.47 s⁻¹ | Km [4]: 100 µM | kcat [4]: 2 s⁻¹ | Km [5]: 2400 µM | kcat [5]: 0.233 s⁻¹ | Km [6]: 1800 µM | kcat [6]: 1.42 s⁻¹ | Km [7]: 80 µM | kcat [7]: 0.9 s⁻¹ | Km [8]: 200 µM | kcat [8]: 6 s⁻¹
